± gives the uncertainty stated by the source.
B1: GAS2-like protein 1, residues 209 to 276; numbered along this chain, Q99501 (parent)
chain: DELVREILGRCTCPDQFPMIKVSEGKYRVGDSSLLIFVRVLRSHVMVRVGGGWDTLEHYLDKHDPCRC

Variants of: B1
Test: abundance fitness (aPCA) (normalised: wild type 0, dead -1); higher = more abundant; growth selection in yeast, the domain comes from the species named
Conditions: Homo sapiens

| Variant | abundance fitness |
| --- | --- |
| S23E | 0.099 ± 0.062 |
| S23C | -0.031 ± 0.088 |
| S23L | -0.809 ± 0.079 |
| C13Q | -0.869 ± 0.15 |
| C13I | -0.304 ± 0.1 |
| C13A | -0.974 ± 0.19 |
| C13D | -0.752 ± 0.12 |
| C13E | -0.726 ± 0.2 |
| H44P | -0.731 ± 0.11 |
| H44D | -0.004 ± 0.066 |
| H44C | -0.182 ± 0.18 |
| H44G | 0.064 ± 0.073 |
| R48A | -0.446 ± 0.063 |
| R48I | -0.542 ± 0.11 |
| R48T | -0.628 ± 0.09 |
| R48M | -0.225 ± 0.07 |
| R48K | 0.142 ± 0.063 |
| R48F | -0.404 ± 0.078 |
| R48S | 0.039 ± 0.037 |
| Y27P | -0.866 ± 0.17 |
| Y27S | -0.861 ± 0.12 |
| Y27T | -0.855 ± 0.17 |
| R10H | -0.013 ± 0.051 |
| R10C | -0.72 ± 0.11 |

| Variant | abundance fitness |
| --- | --- |
| R10T | -0.111 ± 0.053 |
| R10Q | -0.088 ± 0.071 |
| R10S | -0.318 ± 0.05 |
| R10A | -0.311 ± 0.052 |
| R10F | -0.448 ± 0.067 |
| V47D | -0.997 ± 0.16 |
| V47Q | -1.08 ± 0.46 |
| V47G | -0.851 ± 0.069 |
| V47N | -1.01 ± 0.18 |
| V47M | -0.565 ± 0.12 |
| V47K | -0.694 ± 0.13 |
| V47C | -0.175 ± 0.051 |
| V47A | -0.429 ± 0.051 |
| Q16G | -0.131 ± 0.046 |
| Q16N | -0.634 ± 0.12 |
| Q16S | -0.172 ± 0.041 |
| Q16T | -0.11 ± 0.044 |
| Q16K | 0.113 ± 0.047 |
| P14N | -0.424 ± 0.12 |
| P14T | -0.136 ± 0.053 |
| P14I | -0.336 ± 0.073 |
| T55M | -0.512 ± 0.086 |
| T55S | 0.027 ± 0.05 |
| T55R | -0.09 ± 0.039 |

| Variant | abundance fitness |
| --- | --- |
| D61M | -0.073 ± 0.039 |
| D61T | -0.183 ± 0.054 |
| D61Y | -0.068 ± 0.061 |
| D61S | -0.146 ± 0.045 |
| D61E | 0.105 ± 0.045 |
| D61A | -0.074 ± 0.043 |
| L35M | -0.025 ± 0.044 |
| L35I | 0.069 ± 0.074 |
| L35Y | -0.022 ± 0.058 |
| L35K | -0.227 ± 0.086 |
| L35Q | -0.171 ± 0.17 |
| L35E | 0.099 ± 0.087 |
| M46I | -0.186 ± 0.14 |
| M46K | -0.601 ± 0.13 |
| M46V | -0.322 ± 0.091 |
| M46T | -0.299 ± 0.15 |
| M46L | -0.056 ± 0.055 |
| M46A | -0.596 ± 0.089 |
| M46P | -0.476 ± 0.11 |
| E24V | -0.505 ± 0.12 |
| E24W | -0.422 ± 0.14 |
| H63P | -0.455 ± 0.15 |
| H63L | -0.18 ± 0.052 |
| H63M | -0.145 ± 0.083 |

| Variant | abundance fitness |
| --- | --- |
| H63G | -0.719 ± 0.12 |
| G30S | -0.53 ± 0.058 |
| G30L | -0.605 ± 0.068 |
| G30D | -0.337 ± 0.084 |
| G30R | -0.302 ± 0.049 |
| G30Q | -0.603 ± 0.12 |
| G30F | -0.927 ± 0.19 |
| G30N | -0.526 ± 0.15 |
| G30I | -0.803 ± 0.21 |
| G30K | -0.371 ± 0.085 |
| G30A | -0.35 ± 0.054 |
| G30T | -0.569 ± 0.072 |
| G30M | -0.432 ± 0.069 |
| G30W | -0.952 ± 0.19 |
| G52T | 0.109 ± 0.038 |
| G52L | -0.004 ± 0.031 |
| G52D | 0.013 ± 0.044 |
| G52F | -0.068 ± 0.05 |
| I36T | -0.314 ± 0.11 |
| I36L | 0.148 ± 0.056 |
| I36G | -0.683 ± 0.22 |
| I36D | -0.863 ± 0.43 |
| I36P | -0.592 ± 0.25 |
| L56D | -0.852 ± 0.19 |

| Variant | abundance fitness |
| --- | --- |
| L56G | -0.546 ± 0.062 |
| L56W | -0.883 ± 0.15 |
| L56S | -0.691 ± 0.098 |
| L56M | -0.628 ± 0.12 |
| L56Y | -0.716 ± 0.12 |
| L41R | 0.042 ± 0.036 |
| L41S | -0.013 ± 0.047 |
| L41P | -0.86 ± 0.1 |
| L41F | -0.143 ± 0.054 |
| L41K | -0.171 ± 0.072 |
| V45L | -0.328 ± 0.054 |
| V45R | -0.847 ± 0.14 |
| V45W | -0.804 ± 0.23 |
| V45A | -0.141 ± 0.13 |
| V45H | -0.693 ± 0.15 |
| K26E | -0.418 ± 0.17 |
| K26H | -0.035 ± 0.15 |
| K26N | -0.317 ± 0.092 |
| K26M | -0.213 ± 0.17 |
| K26V | 0.177 ± 0.065 |
| K26F | -0.013 ± 0.14 |
| K26R | 0 ± 0.094 |
| K21C | -0.543 ± 0.21 |
| K21Q | -0.254 ± 0.076 |

| Variant | abundance fitness |
| --- | --- |
| K21S | -0.747 ± 0.088 |
| K21D | -0.804 ± 0.2 |
| K21V | -0.791 ± 0.087 |
| K21W | -0.397 ± 0.08 |
| K21M | -0.297 ± 0.087 |
| W53C | -0.485 ± 0.38 |
| R67D | -0.849 ± 0.17 |
| R67A | -0.763 ± 0.17 |
| R67Y | -0.995 ± 0.28 |
| D64P | -0.824 ± 0.18 |
| D64I | -0.75 ± 0.15 |
| D64T | -0.869 ± 0.21 |
| D64N | -0.86 ± 0.15 |
| G50I | -0.765 ± 0.13 |
| G50W | -0.803 ± 0.13 |
| V40R | -0.025 ± 0.049 |
| V40F | -0.369 ± 0.095 |
| L34G | 0.135 ± 0.035 |
| L34W | -0.085 ± 0.043 |
| L34S | 0.154 ± 0.039 |
| L34D | 0.379 ± 0.1 |
| V38F | -0.809 ± 0.35 |
| V38I | -0.322 ± 0.22 |
| V38C | -0.058 ± 0.15 |

| Variant | abundance fitness |
| --- | --- |
| V38M | -0.587 ± 0.22 |
| R42W | -0.289 ± 0.08 |
| R42H | 0.074 ± 0.067 |
| R42S | -0.143 ± 0.072 |
| R42I | -0.913 ± 0.24 |
| R42T | -0.334 ± 0.078 |
| R42F | -0.246 ± 0.074 |
| R42N | 0.119 ± 0.069 |
| R42L | -0.541 ± 0.066 |
| P18G | -0.475 ± 0.058 |
| P18L | -0.471 ± 0.054 |
| P18R | -0.012 ± 0.033 |
| P18F | -0.645 ± 0.16 |
| P18E | -0.132 ± 0.066 |
| P18W | -0.809 ± 0.12 |
| P18D | -0.207 ± 0.064 |
| P65G | -0.837 ± 0.11 |
| P65N | -0.498 ± 0.27 |
| P65M | -0.946 ± 0.19 |
| F37S | 0.306 ± 0.038 |
| F37C | 0.154 ± 0.081 |
| F37R | 0.189 ± 0.031 |
| F37W | 0.051 ± 0.055 |
